# Results taken from article PMC6797743, “Dual self-assembly of supramolecular peptide nanotubes to provide stabilisation in water” (Nature Communications, 2019).
# [ ]: non-standard residue; d: D form. pDMA = poly(N,N-dimethylacrylamide) hydrophilic homopolymer (2)
# B1: CP-(pDMA)2 (4), cyclic peptide-hydrophilic polymer conjugate (peptide)
# peptide: cyclo([dL]K(pDMA)[dL]W[dL]K(pDMA)[dL]W)
# notes: cyclo(D-Leu-Lys-D-Leu-Trp)2, printed in three-letter code; designed cyclic octapeptide of alternating D and L residues (cyclic peptide 10); the same CP as in m1; also called control conjugate; fully hydrophilic control conjugate
# Biological target: the molecule itself
# Experiment: static light scattering (SLS); conjugates in water, 0.1-3.0 mg mL^-1, filtered (0.45 um PTFE); before and after 1 h of sonication (1 h and 3 days of standing); Nagg = molecular weight of the aggregate / molecular weight of the unimer; length = Nagg x 0.5 nm
protein,measurement,value
B1,stoichiometry N,25
